Columns and labels:
[1] = substrate: CCCC(=O)Oc1ccc([N+](=O)[O-])cc1; assay: Initial rate of hydrolysis of p-nitrophenol butyrate (pNB), wild type; assay type: biochemical, Candida antarctica; conditions: other: wild type, 50 mM K-phosphate pH 7.5, room temperature
Source text: (§1) Kinetic analysis of protein variants: To examine the impact of circular permutation on catalysis eleven functional CALB variants with termini in or near the active site were selected for detailed kinetic characterization. The locations of the termini in these variants are shown on the structure of CALB in FIG. 6; the numbers correspond to the amino acid residue of the new terminus. Following overexpression in P. pastoris, the selected circularly permuted proteins were purified to homogeneity. The catalytic performance of these variants was determined in activity assays with two standard lipase substrates, measuring the initial rates of hydrolysis of the chromogenic substrate p-nitrophenol butyrate (pNB) and the fluorogenic substrate 6,8-difluoro-4-methylumbelliferyl (DiFMU) octanoate.
(§2) The overexpression and purification of wild type CALB was performed as described in Rotticci-Mulder, J. C. et al., Protein Expr Purif 2001, 21, (3), 386-92, which is hereby incorporated by reference. The same protocol was adopted for the isolation of circular permutation variants of CALB. Briefly, pPIC9-ca/B was linearized by SacI digestion and electroporated into P. pastoris cells (GS115). […]
(§3) Lipase activity was determined by measuring the initial hydrolysis rate of p-NB and DiFMU octanoate at room temperature on a Synergy-HT microtiterplate reader (Bio-Tek Instruments, Winooski, Vt.). Stock solutions of p-NB (200 mM) and DiFMU octanoate (3 mM) were prepared in DMSO. p-NB hydrolysis over a substrate range of 0-1.6 mM was measured in 50 mM K-phosphate buffer (pH 7.5) at 400 nm ( ? for p-NB=13260 M^1 cm^−1) as described in Bender, M. L. et al., J Am Chem Soc 1968, 90, (1), 201-7, which is hereby incorporated by reference. The rate of DiFMU octanoate hydrolysis was determined by measuring the DiFMU formation over a substrate range of 0-12 μM in 50 mM K-phosphate buffer (pH 7.0) at an excitation/emission wavelength 360/460 nm. Kinetic constants were calculated by fitting the initial rates to the Michaelis-Menten equation using the Origin® software (version 7; OriginLab Corporation).

[2] = substrate: CCCCCCCC(=O)Oc1c(F)cc2c(C)cc(=O)oc2c1F; assay: Initial rate of hydrolysis of DiFMU octanoate, wild type; assay type: biochemical, Candida antarctica; conditions: other: wild type, 50 mM K-phosphate pH 7.0, room temperature
Source text: as §1, §2, §3

B1: Candida antarctica lipase B (CALB), wild type, SEQ ID NO: 2, L1/P317 (Moesziomyces antarcticus) (protein)
chain: LPSGSDPAFSQPKSVLDAGLTCQGASPSSVSKPILLVPGTGTTGPQSFDSNWIPLSAQLGYTPCWISPPPFMLNDTQVNTEYMVNAITTLYAGSGNNKLPVLTWSQGGLVAQWGLTFFPSIRSKVDRLMAFAPDYKGTVLAGPLDALAVSAPSVWQQTTGSALTTALRNAGGLTQIVPTTNLYSATDEIVQPQVSNSPLDSSYLFNGKNVQAQAVCGPLFVIDHAGSLTSQFSYVVGRSALRSTTGQARSADYGITDCNPLPANDLTPEQKVAAAALLAPAAAAIVAGPKQNCEPDLMPYARPFAVGKRTCSGIVTP
Question: For B1, which Km [1] is on record?
Answer: 410 ± 40 µM

Question: What about the kcat [1] of the same protein?
Answer: 305 ± 10 min⁻¹

Question: And the kcat/Km [1]?
Answer: 0.74 min⁻¹ µM⁻¹

Question: And the Km [2]?
Answer: 2.6 ± 0.3 µM

Question: What about the kcat [2] of the same protein?
Answer: 2 ± 0.1 min⁻¹

Question: What about the kcat/Km [2] of the same protein?
Answer: 0.8 min⁻¹ µM⁻¹

From patent US8034579B2, “Proteins with enhanced functionality and methods of making novel proteins using circular permutation” (Emory University, priority 2005, dated 2011)
